Test results taken from patent US20200262877A1, “ION CHANNEL-BINDING PEPTIDES AND METHODS OF USE THEREOF” (priority 2017, published 2020).

Tests used:
NR2A = target: T1, NR2A (Homo sapiens, UniProt Q12879); assay: Ion channel panel (IonWorks Barracuda): NR2A; format: cell-based; details: 100% = no change, <100% = inhibition
T1 construct: host or cells: HEK293 or CHO
How it was run: (§1)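 Transfected HEK293 or CHO cells were exposed for at least 5 min to peptides at 200 nM and 20 μM final, tested in duplicate, in HEPES-buffered physiological saline. Activation was taken as peptide-plus-agonist current over control current ×100, and inhibition as 1 minus that ratio ×100. Each channel's control was its own reference compound.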

α4β2 = target: T2, α4β2 (Homo sapiens, UniProt P17787+P43681); assay: Ion channel panel (IonWorks Barracuda): α4β2; format: cell-based; details: 100% = no change, <100% = inhibition
T2 construct: host or cells: HEK293 or CHO
How it was run: as §1

5HT3a = target: T3, 5HT3a (Homo sapiens, UniProt P46098); assay: Ion channel panel (IonWorks Barracuda): 5HT3a; format: cell-based
T3 construct: host or cells: HEK293 or CHO
T3 sequence (P46098 whole entry, looked up): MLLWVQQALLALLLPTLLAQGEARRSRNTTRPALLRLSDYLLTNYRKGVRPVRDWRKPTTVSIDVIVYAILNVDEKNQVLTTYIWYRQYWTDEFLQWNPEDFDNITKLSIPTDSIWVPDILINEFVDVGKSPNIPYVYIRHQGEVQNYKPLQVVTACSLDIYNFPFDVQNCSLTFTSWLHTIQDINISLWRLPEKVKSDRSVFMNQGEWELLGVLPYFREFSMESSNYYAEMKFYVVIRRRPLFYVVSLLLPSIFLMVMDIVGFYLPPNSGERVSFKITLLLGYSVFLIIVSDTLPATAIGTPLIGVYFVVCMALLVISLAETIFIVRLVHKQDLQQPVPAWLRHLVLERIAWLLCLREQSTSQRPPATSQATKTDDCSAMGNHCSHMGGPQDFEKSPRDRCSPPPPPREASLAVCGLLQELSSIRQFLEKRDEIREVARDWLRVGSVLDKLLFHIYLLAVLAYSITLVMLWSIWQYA
How it was run: as §1

GABA = assay: Ion channel panel (IonWorks Barracuda): GABA; format: cell-based; details: 100% = no change, <100% = inhibition
How it was run: as §1

hERG = hERG (Homo sapiens, UniProt Q12809); assay: in vitro; details: 100% = no change, <100% = inhibition
How it was run: as §1

Nav1.5 = Nav1.5 (Homo sapiens, UniProt Q14524); assay: in vitro; details: 100% = no change; for Activity of Nav1.5 with peptide, expressed as a percentage of the reference compound: peptide at 0.2 μM; for Activity of Nav1.5 with peptide (percentage of the reference compound): peptide at 20 μM
How it was run: as §1

Kir2.1 = target: T4, Kir2.1 (Homo sapiens, UniProt P63252); assay: Ion channel panel (IonWorks Barracuda): Kir2.1; format: cell-based; details: 100% = no change, <100% = inhibition
T4 construct: host or cells: HEK293 or CHO
How it was run: as §1

Kv1.3 = target: T5, Kv1.3 (Homo sapiens, UniProt P22001); assay: cell-based; format: cell-based; details: 100% = no change, <100% = inhibition
T5 construct: host or cells: HEK293 or CHO
How it was run: as §1

Kv1.1 = target: T6, Kv1.1 (Homo sapiens, UniProt Q09470); assay: cell-based; format: cell-based; details: 100% = no change, <100% = inhibition
T6 construct: host or cells: HEK293 or CHO
How it was run: as §1

Kv1.2 = target: T7, Kv1.2 (Homo sapiens, UniProt P16389); assay: cell-based; format: cell-based; details: 100% = no change, <100% = inhibition
T7 construct: host or cells: HEK293 or CHO
How it was run: as §1

TRPA1 = target: T8, TRPA1 (Homo sapiens, UniProt O75762); assay: Ion channel panel (IonWorks Barracuda): TRPA1; format: cell-based; details: 100% = no change, <100% = inhibition
T8 construct: host or cells: HEK293 or CHO
How it was run: as §1

α3β4 = target: T9, α3β4 (Homo sapiens, UniProt P30926+P32297); assay: Ion channel panel (IonWorks Barracuda): α3β4; format: cell-based; details: 100% = no change, <100% = inhibition
T9 construct: host or cells: HEK293 or CHO
How it was run: as §1

TRPV1 = target: T10, TRPV1 (Homo sapiens, UniProt Q8NER1); assay: Ion channel panel (IonWorks Barracuda): TRPV1; format: cell-based; details: 100% = no change, <100% = inhibition
T10 construct: host or cells: HEK293 or CHO
How it was run: as §1

Kv2.1 = target: T11, Kv2.1 (Homo sapiens, UniProt Q14721); assay: cell-based; details: 100% = no change, <100% = inhibition
T11 construct: host or cells: HEK293 or CHO
How it was run: as §1

Cav2.2 = target: T12, Cav2.2 (Homo sapiens, UniProt Q00975); assay: cell-based; details: 100% = no change, <100% = inhibition
T12 construct: host or cells: HEK293 or CHO
How it was run: as §1

Cav2.1 = target: T13, Cav2.1 (Homo sapiens, UniProt O00555); assay: cell-based; details: 100% = no change, <100% = inhibition
T13 construct: host or cells: HEK293 or CHO
How it was run: as §1

Nav1.7 = target: T14, Nav1.7 (Homo sapiens, UniProt Q15858); assay: cell-based; format: cell-based; details: 100% = no change; for Activity of Nav1.7 with peptide, expressed as a percentage of the reference compound: peptide at 0.2 μM; for Activity of Nav1.7 with peptide (percentage of the reference compound): peptide at 20 μM
T14 construct: host or cells: HEK293 or CHO

NR2B = target: T15, NR2B (Homo sapiens, UniProt Q13224); assay: Ion channel panel (IonWorks Barracuda): NR2B; format: cell-based; details: 100% = no change, <100% = inhibition
T15 construct: host or cells: HEK293 or CHO
How it was run: as §1

[1] = first of two Nav1.5 columns (probably TP1)
[2] = second of two Nav1.5 columns (probably TP2)
[3] = first of two Nav1.7 columns (probably TP1)
[4] = second of two Nav1.7 columns (probably TP2)

Nav1.5, sequence (Q14524 whole entry): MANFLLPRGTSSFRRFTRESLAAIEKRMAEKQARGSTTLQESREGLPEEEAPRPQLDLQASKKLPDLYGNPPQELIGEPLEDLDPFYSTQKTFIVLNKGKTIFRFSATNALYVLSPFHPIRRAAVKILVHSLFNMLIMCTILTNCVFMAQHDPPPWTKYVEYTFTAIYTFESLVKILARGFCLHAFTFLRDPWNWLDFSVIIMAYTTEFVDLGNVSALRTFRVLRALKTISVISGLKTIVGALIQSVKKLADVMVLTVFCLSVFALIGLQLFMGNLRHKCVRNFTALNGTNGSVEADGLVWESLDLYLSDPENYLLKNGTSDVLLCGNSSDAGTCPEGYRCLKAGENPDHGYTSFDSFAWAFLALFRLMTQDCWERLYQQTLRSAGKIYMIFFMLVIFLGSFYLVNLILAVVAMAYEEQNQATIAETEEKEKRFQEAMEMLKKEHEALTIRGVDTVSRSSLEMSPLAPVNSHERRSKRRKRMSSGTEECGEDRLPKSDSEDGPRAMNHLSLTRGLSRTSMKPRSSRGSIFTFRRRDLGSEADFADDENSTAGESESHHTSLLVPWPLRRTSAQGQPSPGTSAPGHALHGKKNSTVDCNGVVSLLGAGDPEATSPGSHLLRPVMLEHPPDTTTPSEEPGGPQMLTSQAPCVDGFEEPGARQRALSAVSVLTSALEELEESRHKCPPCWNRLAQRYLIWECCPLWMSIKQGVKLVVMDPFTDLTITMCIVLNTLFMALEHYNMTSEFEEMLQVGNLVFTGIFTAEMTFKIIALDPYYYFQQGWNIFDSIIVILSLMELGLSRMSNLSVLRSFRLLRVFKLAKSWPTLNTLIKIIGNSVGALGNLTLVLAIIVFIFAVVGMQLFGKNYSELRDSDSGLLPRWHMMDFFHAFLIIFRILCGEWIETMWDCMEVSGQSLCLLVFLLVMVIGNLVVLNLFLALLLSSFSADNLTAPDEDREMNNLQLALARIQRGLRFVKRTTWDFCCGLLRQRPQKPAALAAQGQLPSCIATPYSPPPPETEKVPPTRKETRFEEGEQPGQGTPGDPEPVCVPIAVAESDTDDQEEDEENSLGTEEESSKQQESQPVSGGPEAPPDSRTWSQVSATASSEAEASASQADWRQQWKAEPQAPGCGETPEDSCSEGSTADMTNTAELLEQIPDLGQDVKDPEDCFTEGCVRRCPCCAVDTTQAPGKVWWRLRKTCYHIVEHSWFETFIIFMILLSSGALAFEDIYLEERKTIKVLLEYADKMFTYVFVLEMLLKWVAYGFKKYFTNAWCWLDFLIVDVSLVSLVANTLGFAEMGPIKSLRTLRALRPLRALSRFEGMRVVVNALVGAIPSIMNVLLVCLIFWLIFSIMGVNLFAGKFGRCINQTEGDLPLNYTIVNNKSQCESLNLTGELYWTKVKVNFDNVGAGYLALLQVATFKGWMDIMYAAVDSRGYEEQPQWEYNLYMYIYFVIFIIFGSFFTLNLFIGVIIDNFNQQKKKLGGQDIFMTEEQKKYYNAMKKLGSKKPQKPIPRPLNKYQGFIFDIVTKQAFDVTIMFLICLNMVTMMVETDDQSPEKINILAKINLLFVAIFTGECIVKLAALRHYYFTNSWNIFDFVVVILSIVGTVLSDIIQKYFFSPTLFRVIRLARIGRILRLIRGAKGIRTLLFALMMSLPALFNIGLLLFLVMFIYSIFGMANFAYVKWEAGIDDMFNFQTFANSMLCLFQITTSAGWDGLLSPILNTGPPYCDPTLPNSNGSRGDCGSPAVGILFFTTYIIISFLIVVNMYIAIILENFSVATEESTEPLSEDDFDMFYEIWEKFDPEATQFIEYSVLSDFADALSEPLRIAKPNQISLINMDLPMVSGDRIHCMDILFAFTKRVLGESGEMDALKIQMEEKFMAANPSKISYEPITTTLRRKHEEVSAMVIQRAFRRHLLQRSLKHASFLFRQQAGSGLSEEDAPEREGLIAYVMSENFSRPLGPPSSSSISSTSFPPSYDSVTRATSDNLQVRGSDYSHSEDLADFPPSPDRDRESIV
T14 sequence (Q15858 whole entry): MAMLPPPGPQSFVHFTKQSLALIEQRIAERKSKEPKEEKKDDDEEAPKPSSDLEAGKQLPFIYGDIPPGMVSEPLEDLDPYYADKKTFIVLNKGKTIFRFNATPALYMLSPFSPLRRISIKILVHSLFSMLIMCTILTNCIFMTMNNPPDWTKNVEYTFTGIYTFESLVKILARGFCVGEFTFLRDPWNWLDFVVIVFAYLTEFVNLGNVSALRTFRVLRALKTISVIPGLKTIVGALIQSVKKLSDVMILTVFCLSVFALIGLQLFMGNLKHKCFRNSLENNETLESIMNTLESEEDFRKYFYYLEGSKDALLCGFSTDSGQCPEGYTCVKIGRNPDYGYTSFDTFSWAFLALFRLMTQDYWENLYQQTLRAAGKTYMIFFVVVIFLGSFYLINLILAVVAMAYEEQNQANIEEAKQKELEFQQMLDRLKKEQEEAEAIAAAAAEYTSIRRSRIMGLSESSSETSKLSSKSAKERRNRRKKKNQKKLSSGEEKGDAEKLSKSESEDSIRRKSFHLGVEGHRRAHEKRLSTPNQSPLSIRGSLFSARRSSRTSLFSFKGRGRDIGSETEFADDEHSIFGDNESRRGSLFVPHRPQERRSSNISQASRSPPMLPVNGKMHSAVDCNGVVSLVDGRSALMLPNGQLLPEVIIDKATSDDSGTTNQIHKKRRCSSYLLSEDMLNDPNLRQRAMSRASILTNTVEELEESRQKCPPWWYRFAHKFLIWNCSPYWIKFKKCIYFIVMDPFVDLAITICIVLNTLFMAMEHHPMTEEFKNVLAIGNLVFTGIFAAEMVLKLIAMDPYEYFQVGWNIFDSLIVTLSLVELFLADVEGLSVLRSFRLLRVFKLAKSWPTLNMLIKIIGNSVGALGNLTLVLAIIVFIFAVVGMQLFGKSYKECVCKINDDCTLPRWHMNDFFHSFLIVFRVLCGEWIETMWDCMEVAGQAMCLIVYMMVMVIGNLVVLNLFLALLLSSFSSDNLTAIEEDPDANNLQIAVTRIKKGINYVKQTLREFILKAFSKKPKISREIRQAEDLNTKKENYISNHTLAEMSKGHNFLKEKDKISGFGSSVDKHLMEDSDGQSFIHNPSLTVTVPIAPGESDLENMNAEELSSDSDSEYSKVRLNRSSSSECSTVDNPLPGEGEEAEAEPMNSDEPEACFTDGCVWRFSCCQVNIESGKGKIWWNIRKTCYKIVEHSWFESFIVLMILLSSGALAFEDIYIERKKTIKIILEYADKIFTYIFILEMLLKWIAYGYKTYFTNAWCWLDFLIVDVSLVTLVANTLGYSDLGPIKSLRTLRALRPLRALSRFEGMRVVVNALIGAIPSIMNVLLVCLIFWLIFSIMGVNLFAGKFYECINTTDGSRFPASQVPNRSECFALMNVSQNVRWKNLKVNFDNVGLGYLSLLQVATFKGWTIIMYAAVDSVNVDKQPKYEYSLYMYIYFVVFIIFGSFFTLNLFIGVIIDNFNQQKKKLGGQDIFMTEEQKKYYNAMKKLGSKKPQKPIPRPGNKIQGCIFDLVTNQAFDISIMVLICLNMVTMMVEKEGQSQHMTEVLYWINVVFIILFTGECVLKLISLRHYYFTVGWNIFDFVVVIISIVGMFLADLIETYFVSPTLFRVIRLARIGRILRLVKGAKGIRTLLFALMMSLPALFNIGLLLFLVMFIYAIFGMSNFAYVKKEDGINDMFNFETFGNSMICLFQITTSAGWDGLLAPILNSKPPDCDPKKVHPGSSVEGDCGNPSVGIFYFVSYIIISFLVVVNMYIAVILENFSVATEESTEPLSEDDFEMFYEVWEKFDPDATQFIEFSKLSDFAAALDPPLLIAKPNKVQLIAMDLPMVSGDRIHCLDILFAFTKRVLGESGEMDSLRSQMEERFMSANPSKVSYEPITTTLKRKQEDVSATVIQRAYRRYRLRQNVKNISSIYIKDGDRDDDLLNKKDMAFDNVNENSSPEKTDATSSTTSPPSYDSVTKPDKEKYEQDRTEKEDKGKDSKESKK
T9 sequence (P30926 22-498): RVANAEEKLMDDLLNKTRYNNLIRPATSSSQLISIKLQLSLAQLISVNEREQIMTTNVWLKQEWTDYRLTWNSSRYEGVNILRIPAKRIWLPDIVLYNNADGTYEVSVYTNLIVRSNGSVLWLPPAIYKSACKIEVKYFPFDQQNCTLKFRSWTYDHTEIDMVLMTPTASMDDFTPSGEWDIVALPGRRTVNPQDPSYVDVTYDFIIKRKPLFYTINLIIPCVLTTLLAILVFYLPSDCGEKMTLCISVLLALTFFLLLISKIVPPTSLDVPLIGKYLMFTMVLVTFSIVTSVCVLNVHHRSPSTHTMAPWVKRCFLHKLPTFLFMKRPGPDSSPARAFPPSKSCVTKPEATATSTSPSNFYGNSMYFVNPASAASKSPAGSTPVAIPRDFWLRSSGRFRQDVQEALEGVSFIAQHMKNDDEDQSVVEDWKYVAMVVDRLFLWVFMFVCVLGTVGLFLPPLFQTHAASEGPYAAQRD
T9 sequence (P32297 32-505): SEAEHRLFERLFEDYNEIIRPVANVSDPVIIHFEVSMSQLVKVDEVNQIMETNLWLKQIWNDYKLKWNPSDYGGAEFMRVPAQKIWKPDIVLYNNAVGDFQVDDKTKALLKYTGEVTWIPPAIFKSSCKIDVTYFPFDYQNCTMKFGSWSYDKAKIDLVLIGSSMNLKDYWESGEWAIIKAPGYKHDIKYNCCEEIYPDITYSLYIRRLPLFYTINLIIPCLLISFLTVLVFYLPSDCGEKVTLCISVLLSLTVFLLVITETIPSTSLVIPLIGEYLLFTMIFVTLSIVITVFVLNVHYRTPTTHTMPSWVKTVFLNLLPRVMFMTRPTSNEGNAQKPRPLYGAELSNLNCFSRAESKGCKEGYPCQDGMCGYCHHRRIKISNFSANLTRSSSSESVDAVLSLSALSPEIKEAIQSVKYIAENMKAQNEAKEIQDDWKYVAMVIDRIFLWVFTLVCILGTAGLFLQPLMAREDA

4 (GSSCAKPRENCNRMNILCCRGECVCPTFGDCFCYGD) [compound 4]
Activity of NR2A with peptide, expressed as a percentage of the reference compound (NR2A; peptide at 0.2 μM): 106%
Activity of NR2A with peptide (percentage of the reference compound) (NR2A; peptide at 20 μM): 90%
Activity of a4b2 with peptide, expressed as a percentage of the reference compound (α4β2; peptide at 0.2 μM): 86%
Activity of a4b2 with peptide (percentage of the reference compound) (α4β2; peptide at 20 μM): 81%
Activity of 5HT3a with peptide (percentage of the reference compound) (5HT3a): 76%
Activity of 5HT3a with peptide, expressed as a percentage of the reference compound (5HT3a): 103%
Activity of GABA with peptide, expressed as a percentage of the reference compound (GABA; peptide at 0.2 μM): 121%
Activity of GABA with peptide (percentage of the reference compound) (GABA; peptide at 20 μM): 108%
Activity of hERG with peptide, expressed as a percentage of the reference compound (hERG; peptide at 0.2 μM): 110%
Activity of hERG with peptide (percentage of the reference compound) (hERG; peptide at 20 μM): 80%
Activity of Nav1.5 with peptide, expressed as a percentage of the reference compound (Nav1.5; [1]): 117%
Activity of Nav1.5 with peptide, expressed as a percentage of the reference compound (Nav1.5; [2]): 118%
Activity of Nav1.5 with peptide (percentage of the reference compound) (Nav1.5; [1]): 98%
Activity of Nav1.5 with peptide (percentage of the reference compound) (Nav1.5; [2]): 101%
Activity of Kir2.1 with peptide, expressed as a percentage of the reference compound (Kir2.1; peptide at 0.2 μM): 109%
Activity of Kir2.1 with peptide (percentage of the reference compound) (Kir2.1; peptide at 20 μM): 90%
Activity of Kv1.3 with peptide, expressed as a percentage of the reference compound (Kv1.3; peptide at 0.2 μM): 109%
Activity of Kv1.3 with peptide (percentage of the reference compound) (Kv1.3; peptide at 20 μM): 87%
Activity of Kv1.1 with peptide, expressed as a percentage of the reference compound (Kv1.1; peptide at 0.2 μM): 106%
Activity of Kv1.1 with peptide (percentage of the reference compound) (Kv1.1; peptide at 20 μM): 91%
Activity of Kv1.2 with peptide, expressed as a percentage of the reference compound (Kv1.2; peptide at 0.2 μM): 90%
Activity of Kv1.2 with peptide (percentage of the reference compound) (Kv1.2; peptide at 20 μM): 45%
Activity of TRPA1 with peptide, expressed as a percentage of the reference compound (TRPA1; peptide at 0.2 μM): 135%
Activity of TRPA1 with peptide (percentage of the reference compound) (TRPA1; peptide at 20 μM): 119%
Activity of a3b4 with peptide, expressed as a percentage of the reference compound (α3β4; peptide at 0.2 μM): 107%
Activity of a3b4 with peptide (percentage of the reference compound) (α3β4; peptide at 20 μM): 97%
Activity of TRPV1 with peptide, expressed as a percentage of the reference compound (TRPV1; peptide at 0.2 μM): 110%
Activity of TRPV1 with peptide (percentage of the reference compound) (TRPV1; peptide at 20 μM): 98%
Activity of Kv2.1 with peptide, expressed as a percentage of the reference compound (Kv2.1; peptide at 0.2 μM): 112%
Activity of Kv2.1 with peptide (percentage of the reference compound) (Kv2.1; peptide at 20 μM): 102%
Activity of Cav2.2 with peptide, expressed as a percentage of the reference compound (Cav2.2; peptide at 0.2 μM): 105%
Activity of Cav2.2 with peptide (percentage of the reference compound) (Cav2.2; peptide at 20 μM): 101%
Activity of Cav2.1 with peptide, expressed as a percentage of the reference compound (Cav2.1; peptide at 0.2 μM): 111%
Activity of Cav2.1 with peptide (percentage of the reference compound) (Cav2.1; peptide at 20 μM): 130%
Activity of Nav1.7 with peptide, expressed as a percentage of the reference compound (Nav1.7; [3]): 95%
Activity of Nav1.7 with peptide, expressed as a percentage of the reference compound (Nav1.7; [4]): 93%
Activity of Nav1.7 with peptide (percentage of the reference compound) (Nav1.7; [3]): 96%
Activity of Nav1.7 with peptide (percentage of the reference compound) (Nav1.7; [4]): 104%
Activity of NR2B with peptide, expressed as a percentage of the reference compound (NR2B; peptide at 0.2 μM): 117%
Activity of NR2B with peptide (percentage of the reference compound) (NR2B; peptide at 20 μM): 93%
